# Measurements reported in US20200231683A1 (Bristol-Myers Squibb, published 2020).
# Changes are numbered by the printed parent chain.
# B1: D1 human anti-CXCR4 monoclonal antibody (antibody, V domains shown)
# VH: EVQLVQSGGGLVQPGGSLRLSCAAAGFTFSSYSMNWVRQAPGKGLEWVSYISSRSKTIYYADSVKGRFTISRDNARNSLYLQMNSLRDEDTAVYYCARDYGGQPPYYYYYGMDVWGQGTTVTVSS
# VL: VIWVTQSPSSLSASVGDRVTITCRTSQGISSWLAWYQQKPEKAPELLIYAASSLQSGVPSRFSGSGSGTDFTLTISSLQPEDFATYYCQQYNSYPRTFGQGTKVEIK
# B2: E2 human anti-CXCR4 monoclonal antibody (antibody, V domains shown)
# VH: B1 VH with K56R, R76K, Y107H
# VL: B1 VL with V1E, W3V, V4L, T25A, S31N, E45K, L46S
# What was measured:
# [1] = molecular target: T1, human CXCR4 (C-X-C chemokine receptor 4) (human, UniProt P61073 1-352); test: cell-based or functional assay
# [2] = molecular target: T1, human CXCR4 (C-X-C chemokine receptor 4); test: displacement of 100 pM ^125I-CXCL12 from CEM cells
# Description: The anti-CXCR4 antibodies were serially diluted 1:3 to yield a range of concentrations from 300 nM to 137 pM. […] An irrelevant antibody of the same isotype was used as a negative control.
# [3] = molecular target: T1, human CXCR4 (C-X-C chemokine receptor 4); test: flow cytometry on CEM cells (native human CXCR4), FITC anti-human IgG secondary
# Description: The antibodies were then mixed with CEM cells and allowed to bind before being detected with a FITC-conjugated anti-human IgG secondary antibody. The cells were then analyzed by fluorescence cytometry.
# T1 sequence (P61073 whole entry): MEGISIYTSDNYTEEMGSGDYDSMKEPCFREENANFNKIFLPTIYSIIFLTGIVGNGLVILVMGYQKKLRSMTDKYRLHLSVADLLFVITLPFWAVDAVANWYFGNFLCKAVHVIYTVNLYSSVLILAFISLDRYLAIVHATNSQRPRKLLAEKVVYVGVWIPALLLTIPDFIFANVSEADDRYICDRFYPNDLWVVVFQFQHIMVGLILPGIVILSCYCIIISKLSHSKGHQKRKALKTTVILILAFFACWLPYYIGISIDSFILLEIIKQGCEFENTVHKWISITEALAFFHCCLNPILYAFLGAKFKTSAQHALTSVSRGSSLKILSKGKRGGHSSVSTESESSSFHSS
Binder,EC50 for inhibition of CXCL12-induced calcium flux in CEM cells [1] [nM],EC50 [2] [nM],EC50 [3] [nM]
B1,0.57,28.6,80
B2,,,290
